Assay results published in paper PMC2119758.

Biological target: rabbit muscle F-actin (polymerized rabbit muscle actin) (rabbit) (UniProt P68135)
Test: co-sedimentation

Row | stoichiometry N (actin monomers per GST.p80) | Substance | fold increase of affinity against GST.p80 [fold]
1 |  | bacterially expressed cortactin (p80 residues 55-526) after removal of GST with thrombin (domain or fragment) | 2
2 | 14 | GST.p80 fusion protein (cortactin p80 residues 55-526) (domain or fragment) | 
